Data on 1 substance can be found in patent US20230406924A1.

Usually Kd stands for the equilibrium constant for the complex coming apart. High values mean weaker binding, low ones tighter binding. As usually defined, the koff is the rate constant with which the complex falls apart. Higher therefore signals a short-lived complex. As a reminder, the kon is the second-order rate constant of association.

The target in the assay is Mouse TREM-1 analyte (in house, his tagged) (mouse) (UniProt Q9JKE2). Kind of assay: SPR (Biacore T200, 25 C), MAB1187 captured on anti rat Fc, his tagged mouse TREM-1 as analyte, 1:1 model. (In SPR one partner is held on a chip, and binding of the other changes the refractive index at the surface.)
Sequence of UniProt Q9JKE2 (Q9JKE2 21-202 limits assumed): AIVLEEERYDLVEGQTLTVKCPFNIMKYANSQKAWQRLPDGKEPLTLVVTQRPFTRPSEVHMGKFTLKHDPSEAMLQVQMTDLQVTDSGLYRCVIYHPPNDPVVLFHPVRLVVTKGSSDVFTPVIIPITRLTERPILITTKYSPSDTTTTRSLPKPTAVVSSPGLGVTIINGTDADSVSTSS

Turning to “MAB1187, anti-mouse TREM1 monoclonal antibody (R&D Systems, clone 174031)”, the Kd came out at 26 nM, the off-rate (koff) came to 0.0051 s⁻¹ and the kon was 200000 M⁻¹ s⁻¹.
